Tests used:
OML4-nLUC = molecular target: T1, OML4-nLUC (rice; firefly, UniProt Q64M78 1-1001); experiment: firefly luciferase complementation imaging in N. benthamiana leaves
T1 construct: Co-expressed in N. benthamiana leaves; Order of the pieces follows the printed name; not shown: N-terminal fragment of firefly luciferase (nLUC)
T1 sequence: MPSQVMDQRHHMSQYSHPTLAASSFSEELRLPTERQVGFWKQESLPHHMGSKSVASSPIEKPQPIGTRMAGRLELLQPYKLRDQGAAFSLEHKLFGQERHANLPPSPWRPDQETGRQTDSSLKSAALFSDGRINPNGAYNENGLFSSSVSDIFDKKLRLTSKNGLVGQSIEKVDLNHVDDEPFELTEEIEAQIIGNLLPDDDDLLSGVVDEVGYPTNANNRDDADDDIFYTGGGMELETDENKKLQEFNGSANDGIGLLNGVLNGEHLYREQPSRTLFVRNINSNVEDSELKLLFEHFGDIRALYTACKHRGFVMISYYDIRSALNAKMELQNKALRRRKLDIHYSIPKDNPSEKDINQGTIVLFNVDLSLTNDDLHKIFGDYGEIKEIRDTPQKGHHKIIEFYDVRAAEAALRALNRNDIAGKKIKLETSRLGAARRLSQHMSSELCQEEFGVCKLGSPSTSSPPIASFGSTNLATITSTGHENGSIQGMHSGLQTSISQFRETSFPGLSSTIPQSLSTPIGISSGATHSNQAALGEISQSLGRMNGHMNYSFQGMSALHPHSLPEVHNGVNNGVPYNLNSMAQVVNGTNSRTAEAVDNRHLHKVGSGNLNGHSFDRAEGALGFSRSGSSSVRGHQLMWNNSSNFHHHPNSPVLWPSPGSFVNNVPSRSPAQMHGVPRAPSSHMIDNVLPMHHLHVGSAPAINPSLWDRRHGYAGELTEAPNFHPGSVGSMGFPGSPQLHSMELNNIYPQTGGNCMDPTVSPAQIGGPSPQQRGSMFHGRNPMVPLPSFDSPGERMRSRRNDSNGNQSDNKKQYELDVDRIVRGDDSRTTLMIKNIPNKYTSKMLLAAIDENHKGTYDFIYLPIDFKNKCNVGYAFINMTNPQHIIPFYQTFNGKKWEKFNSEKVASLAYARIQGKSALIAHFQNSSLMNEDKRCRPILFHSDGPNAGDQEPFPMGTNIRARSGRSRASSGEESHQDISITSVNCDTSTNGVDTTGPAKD
Procedure: (§1) (A) OML4 interacts with GSK2 in yeast cells. Yeast cells were cultured on SD/-Trp-Leu or SD/-Trp-Leu-His-Ade media. (B) OML4 associates with GSK2 in N. benthamiana. OML4-nLUC and GSK2-cLUC were co-expressed in N. benthamiana leaves. Luciferase activity was observed 48 hours after infiltration. The range of luminescence intensity was scaled by the pseudocolor bar. (C) Bimolecular fluorescence complementation (BiFC) assays shown that OML4 interacts with GSK2 in N. benthamiana. OML4-cYFP was coexpressed with GSK2-nYFP in leaves of N. benthamiana. (D) OML4 binds GSK2 in vitro. GSK2-GST was incubated with OML4-MBP and pulled down by OML4-MBP and detected by immunoblot with anti-GST antibody. IB: immunoblot. (E) Interaction between OML4 and GSK2 in the Co-IP assays. Anti-MYC beads were used to immunoprecipitate GSK2-GFP proteins. Gel blots were probed with anti-MYC or anti-GFP antibody. Bars: 50 μm in C.
(§2) We next verified the interaction between OML4 and GSK2 in plant cells using the firefly luciferase (LUC) complementation imaging assay (FIG. 5B). The OML4-nLUC and GSK2-cLUC were transformed and co-expressed in N. benthamiana leaves. […] We then performed bimolecular fluorescence complementation (BiFC) assay to test the interaction between OML4 and GSK2 in plant cells (FIG. 5C). […]

nLUC = molecular target: T2, nLUC (firefly, UniProt P08659 1-416 = luciferase); experiment: firefly luciferase complementation imaging, co-expression in N. benthamiana leaves
T2 construct: Control of the luciferase complementation imaging assay
Procedure: as §1, §2

T2 sequence (P08659 1-416): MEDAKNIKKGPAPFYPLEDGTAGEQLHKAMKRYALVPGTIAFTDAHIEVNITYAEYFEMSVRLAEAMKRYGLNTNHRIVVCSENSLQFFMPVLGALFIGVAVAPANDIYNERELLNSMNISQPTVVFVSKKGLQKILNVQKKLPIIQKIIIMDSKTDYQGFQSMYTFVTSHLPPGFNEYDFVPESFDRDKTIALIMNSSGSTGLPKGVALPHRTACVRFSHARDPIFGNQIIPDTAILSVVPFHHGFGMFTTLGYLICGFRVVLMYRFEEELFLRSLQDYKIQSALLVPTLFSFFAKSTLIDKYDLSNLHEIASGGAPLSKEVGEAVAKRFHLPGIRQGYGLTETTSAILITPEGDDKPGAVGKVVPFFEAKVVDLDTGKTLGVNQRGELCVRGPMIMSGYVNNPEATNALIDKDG

binding result (OML4-nLUC): binds | binding result (nLUC): no binding
B1: GSK2-cLUC (enzyme)
chain: MDQPAPAPEPMLLDAQPPAAVACDKKQQEGEAPYAEGNDAVTGHIISTTIGGKNGEPKRTISYMAERVVGTGSFGIVFQAKCLETGETVAIKKVLQDRRYKNRELQLMRAMDHPNVISLKHCFFSTTSRDELFLNLVMEYVPETLYRVLKHYSNANHRMPLIYVKLYMYQLFRGLAYIHTVPGVCHRDVKPQNVLVDPLTHQVKLCDFGSAKTLVPGEPNISYICSRYYRAPELIFGATEYTTSIDIWSAGCVLAELLLGQPLFPGESAVDQLVEIIKVLGTPTREEIRCMNPNYTEFRFPQIKAHPWHKVFHKRMPPEAIDLASRLLQYSPSLRCTALDACAHPFFDELREPNARLPNGRPFPPLFNFKHELANSSQELISRLIPEHVRRQATHNFFNTGS
notes: Co-expressed in N. benthamiana leaves; Order of the pieces follows the printed name; not shown: C-terminal fragment of firefly luciferase (cLUC)
